Source: PMC4422259, “Arc is a flexible modular protein capable of reversible self-oligomerization” (Biochemical Journal, 2015)

Columns and labels:
[1] = biological target: the molecule itself; test: dynamic light scattering; hArc 22 μM (1 mg/ml) in 10 mM potassium phosphate, pH 7.4, at 36°C
[2] = biological target: the molecule itself; test: dynamic light scattering; hArc 22 μM (1 mg/ml) in 10 mM potassium phosphate, pH 7.4, without salt, at 20°C and 90°C

B1: recombinant human Arc (activity-regulated cytoskeleton-associated protein), wild type, cleaved from the His-ZZ-hArc fusion protein (natural protein, UniProt Q7LC44 1-396, looked up)
chain: MELDHRTSGGLHAYPGPRGGQVAKPNVILQIGKCRAEMLEHVRRTHRHLLAEVSKQVERELKGLHRSVGKLESNLDGYVPTSDSQRWKKSIKACLCRCQETIANLERWVKREMHVWREVFYRLERWADRLESTGGKYPVGSESARHTVSVGVGGPESYCHEADGYDYTVSPYAITPPPAAGELPGQEPAEAQQYQPWVPGEDGQPSPGVDTQIFEDPREFLSHLEEYLRQVGGSEEYWLSQIQNHMNGPAKKWWEFKQGSVKNWVEFKKEFLQYSEGTLSREAIQRELDLPQKQGEPLDQFLWRKRDLYQTLYVDADEEEIIQYVVGTLQPKLKRFLRHPLPKTLEQLIQRGMEVQDDLEQAAEPAGPHLPVEDEAETLTPAPNSESVASDRTQPE
notes: human Arc (activity-regulated cytoskeleton-associated protein); called full-length hArc; Vector pETZZ_1a; also called WT hArc; Arc/Arg3.1; source: E. coli BL21-CodonPlus, auto-induction medium, purified (Ni-NTA, TEV cleavage, second Ni-NTA flow-through); not shown: His, N-terminal, cleaved; ZZ domain, N-terminal, cleaved
[1]
  stoichiometry N: > 12 subunits
[2]
  stoichiometry N: ≥ 40 subunits
